Laboratory results: publication PMC7329908, “Glucocorticoid receptor complexes form cooperatively with the Hsp90 co-chaperones Pp5 and FKBPs” (Scientific Reports, 2020)
Each block holds one binder with its values, some of them ahead of it.

Key:
Details in all cases: both partners purified
human Hsp90β [1] = molecular target: T1, human Hsp90β (human, UniProt P08238 1-724); experiment: AUC; sedimentation velocity with fluorescence detection; 600 nM ATTO 488-labelled GRLBDm, 3 μM unlabelled chaperones and cofactors, 2 mM ATPγS; 20 mM HEPES, 20 mM KCl, 5 mM MgCl2, 50 μM dexamethasone, pH 7.5; 42,000 rpm, 20 °C
T1 construct: Hsp90β, human; source: E. coli BL21 (DE3), purified (HisTrap, Resource Q, Superdex size exclusion)

human Hsp90β [2] = molecular target: T1, human Hsp90β; experiment: AUC; sedimentation velocity with fluorescence detection; 600 nM ATTO 488-labelled GRLBDm, 3 μM unlabelled chaperones and cofactors, no nucleotide; 20 mM HEPES, 20 mM KCl, 5 mM MgCl2, 50 μM dexamethasone, pH 7.5; 42,000 rpm, 20 °C
[3] = molecular target: T2, C. elegans Hsp90 (HSP-90) (C. elegans, UniProt Q18688 1-702); experiment: as above
T2 construct: HSP-90 (Hsp90 homolog), C. elegans; also called nematode HSP-90; nematode Hsp90; source: E. coli BL21 (DE3), purified (HisTrap, Resource Q, Superdex size exclusion)

[4] = molecular target: T2, C. elegans Hsp90 (HSP-90); experiment: AUC; sedimentation velocity with fluorescence detection; 600 nM ATTO 488-labelled GRLBDm, 3 μM unlabelled chaperones and cofactors, 2 mM ATPγS; 20 mM HEPES, 20 mM KCl, 5 mM MgCl2, 50 μM dexamethasone, pH 7.5; 42,000 rpm, 20 °C

T1 sequence (P08238 whole entry): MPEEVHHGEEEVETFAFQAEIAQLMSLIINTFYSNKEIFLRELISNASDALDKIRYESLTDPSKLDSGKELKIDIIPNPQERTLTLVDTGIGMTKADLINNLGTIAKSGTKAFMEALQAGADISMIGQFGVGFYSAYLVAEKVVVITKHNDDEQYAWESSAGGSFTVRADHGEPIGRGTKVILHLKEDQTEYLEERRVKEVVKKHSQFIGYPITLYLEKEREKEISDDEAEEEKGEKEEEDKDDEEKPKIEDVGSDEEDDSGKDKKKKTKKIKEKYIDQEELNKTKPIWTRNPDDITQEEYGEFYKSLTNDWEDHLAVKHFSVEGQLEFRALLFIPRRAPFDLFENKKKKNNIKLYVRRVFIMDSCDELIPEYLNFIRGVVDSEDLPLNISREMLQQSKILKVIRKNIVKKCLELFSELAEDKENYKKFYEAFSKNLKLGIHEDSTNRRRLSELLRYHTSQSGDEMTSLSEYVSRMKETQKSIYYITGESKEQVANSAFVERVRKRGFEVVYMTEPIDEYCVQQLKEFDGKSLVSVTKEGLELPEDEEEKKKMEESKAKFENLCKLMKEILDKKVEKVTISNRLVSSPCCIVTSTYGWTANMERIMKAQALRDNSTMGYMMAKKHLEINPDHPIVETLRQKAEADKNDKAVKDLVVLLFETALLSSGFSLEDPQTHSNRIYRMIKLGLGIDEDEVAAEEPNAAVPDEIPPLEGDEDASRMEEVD

B3: STI-1, nematode TPR cofactor of HSP-90 (homolog of human Hop) (natural protein, C. elegans, UniProt O16259 1-320, looked up)
chain: MTDAAIAEKDLGNAAYKQKDFEKAHVHYDKAIELDPSNITFYNNKAAVYFEEKKFAECVQFCEKAVEVGRETRADYKLIAKAMSRAGNAFQKQNDLSLAVQWFHRSLSEFRDPELVKKVKELEKQLKAAERLAYINPELAQEEKNKGNEYFKKGDYPTAMRHYNEAVKRDPENAILYSNRAACLTKLMEFQRALDDCDTCIRLDSKFIKGYIRKAACLVAMREWSKAQRAYEDALQVDPSNEEAREGVRNCLRSNDEDPEKAKERSLADPEVQEILRDPGMRMILEQMSNDPGAVREHLKNPEIFQKLMKLRDAGVIQMR
notes: STI-1, C. elegans; source: E. coli BL21 (DE3), purified (HisTrap, Resource Q, Superdex size exclusion)
binding result [3]: binds

B4: FKB-6, nematode large prolyl isomerase (FK1, FK2 and TPR domains) (enzyme, C. elegans, UniProt O45418 1-431, looked up)
chain: MSGEKIDITPKKDGGVLKLIKKEGQGVVKPTTGTTVKVHYVGTLENGTKFDSSRDRGDQFSFNLGRGNVIKGWDLGVATMTKGEVAEFTIRSDYGYGDAGSPPKIPGGATLIFEVELFEWSAEDISPDRDGTILRTIIVEGSKNSFPNDTSKVLAHCVGTYQGTEFYNREVNFHIGEGSEEGLPEGVERALRRFQLGEKSKIEIRGHKYTYGNSPPAGSNIPVNATLEFTIFLKEFEKVPATWEMTAEEKLDAAKQAKDRGTMYLQKGNLKLAYNKYKRAEEVLEYEKSTDPEKMAERETILNGAYLNLSLVCSKQNEQLECIKWCDKVLETKPGNVKALYRKATALLTMNEVRDAMKLFEKIVEVEPENKAAAQQIIVCRNTIREQNERDKKRFKNLFAKISTEEDKPTNTVEDEDEIVASTSGSSTSNA
notes: FKB-6, peptidyl prolyl isomerase with FK1, FK2 and C-terminal TPR region, C. elegans; source: E. coli BL21 (DE3), purified (HisTrap, Resource Q, Superdex size exclusion)
binding result [4]: binds

B5: human Fkbp51 (enzyme, UniProt Q13451 1-457, looked up)
chain: MTTDEGAKNNEESPTATVAEQGEDITSKKDRGVLKIVKRVGNGEETPMIGDKVYVHYKGKLSNGKKFDSSHDRNEPFVFSLGKGQVIKAWDIGVATMKKGEICHLLCKPEYAYGSAGSLPKIPSNATLFFEIELLDFKGEDLFEDGGIIRRTKRKGEGYSNPNEGATVEIHLEGRCGGRMFDCRDVAFTVGEGEDHDIPIGIDKALEKMQREEQCILYLGPRYGFGEAGKPKFGIEPNAELIYEVTLKSFEKAKESWEMDTKEKLEQAAIVKEKGTVYFKGGKYMQAVIQYGKIVSWLEMEYGLSEKESKASESFLLAAFLNLAMCYLKLREYTKAVECCDKALGLDSANEKGLYRRGEAQLLMNEFESAKGDFEKVLEVNPQNKAARLQISMCQKKAKEHNERDRRIYANMFKKFAEQDAKEEANKAMGKKTSEGVTNEKGTDSQAMEEEKPEGHV
notes: Fkbp51, human PPIase; source: E. coli BL21 (DE3), purified (HisTrap, Resource Q, Superdex size exclusion)
binding result (human Hsp90β [2]): binds

B6: human Fkbp52 (enzyme, UniProt Q02790 1-459, looked up)
chain: MTAEEMKATESGAQSAPLPMEGVDISPKQDEGVLKVIKREGTGTEMPMIGDRVFVHYTGWLLDGTKFDSSLDRKDKFSFDLGKGEVIKAWDIAIATMKVGEVCHITCKPEYAYGSAGSPPKIPPNATLVFEVELFEFKGEDLTEEEDGGIIRRIQTRGEGYAKPNEGAIVEVALEGYYKDKLFDQRELRFEIGEGENLDLPYGLERAIQRMEKGEHSIVYLKPSYAFGSVGKEKFQIPPNAELKYELHLKSFEKAKESWEMNSEEKLEQSTIVKERGTVYFKEGKYKQALLQYKKIVSWLEYESSFSNEEAQKAQALRLASHLNLAMCHLKLQAFSAAIESCNKALELDSNNEKGLFRRGEAHLAVNDFELARADFQKVLQLYPNNKAAKTQLAVCQQRIRRQLAREKKLYANMFERLAEEENKAKAEASSGDHPTDTEMKEEQKSNTAGSQSQVETEA
notes: Fkbp52, human PPIase; source: E. coli BL21 (DE3), purified (HisTrap, Resource Q, Superdex size exclusion)
binding result (human Hsp90β [2]): binds

Second part, the binder after the results:

binding result (human Hsp90β [1]): binds
B1: human p23 (natural protein, UniProt Q15185 1-160, looked up)
chain: MQPASAKWYDRRDYVFIEFCVEDSKDVNVNFEKSKLTFSCLGGSDNFKHLNEIDLFHCIDPNDSKHKRTDRSILCCLRKGESGQSWPRLTKERAKLNWLSVDFNNWKDWEDDSDEDMSNFDRFSEMMNNMGGDEDVDLPEVDGADDDSQDSDDEKMPDLE
notes: p23 co-chaperone, human; source: E. coli BL21 (DE3), purified (HisTrap, Resource Q, Superdex size exclusion)

binding result (human Hsp90β [2]): binds
B2: human protein phosphatase Pp5 (enzyme, UniProt P53041 1-499, looked up)
chain: MAMAEGERTECAEPPRDEPPADGALKRAEELKTQANDYFKAKDYENAIKFYSQAIELNPSNAIYYGNRSLAYLRTECYGYALGDATRAIELDKKYIKGYYRRAASNMALGKFRAALRDYETVVKVKPHDKDAKMKYQECNKIVKQKAFERAIAGDEHKRSVVDSLDIESMTIEDEYSGPKLEDGKVTISFMKELMQWYKDQKKLHRKCAYQILVQVKEVLSKLSTLVETTLKETEKITVCGDTHGQFYDLLNIFELNGLPSETNPYIFNGDFVDRGSFSVEVILTLFGFKLLYPDHFHLLRGNHETDNMNQIYGFEGEVKAKYTAQMYELFSEVFEWLPLAQCINGKVLIMHGGLFSEDGVTLDDIRKIERNRQPPDSGPMCDLLWSDPQPQNGRSISKRGVSCQFGPDVTKAFLEENNLDYIIRSHEVKAEGYEVAHGGRCVTVFSAPNYCDQMGNKASYIHLQGSDLRPQFHQFTAVPHPNVKPMAYANTLLQLGMM
notes: Pp5 (serine/threonine protein phosphatase 5), human; source: E. coli BL21 (DE3), purified (HisTrap, Resource Q, Superdex size exclusion)

binding result [4]: binds
B7: PPH-5, nematode protein phosphatase, homolog of human Pp5 (enzyme, C. elegans, UniProt Q9NES8 1-496, looked up)
chain: MAATITDDIVATVLESIEEKSYEDEKEKAGMIKDEANQFFKDQVYDVAADLYSVAIEIHPTAVLYGNRAQAYLKKELYGSALEDADNAIAIDPSYVKGFYRRATANMALGRFKKALTDYQAVVKVCPNDKDARAKFDECSKIVRRQKFEAAISTDHDKKTVAETLDINAMAIEDSYDGPRLEDKITKEFVLQLIKTFKNQQKLHKKYAFKMLLEFYNYVKSLPTMVEITVPTGKKFTICGDVHGQFYDLCNIFEINGYPSETNPYLFNGDFVDRGSFSVETIFTMIGFKLLYPNHFFMSRGNHESDVMNKMYGFEGEVKAKYTQQMCDMFTETFCWLPLCHLINEKIFVCHGGLFKEDGVTLEDIRKTDRNRQPPDEGIMCDLLWSDPQPINGRSPSKRGVGCQFGPDVTSKWCETNGIEYVVRSHEVKPEGYEMHHNGQCFTVFSAPNYCDQMNNKGAFITITGDNLTPRFTPFDAVPHPKLPPMAYANSLFGFN
notes: PPH-5, TPR-containing serine/threonine phosphatase, C. elegans; source: E. coli BL21 (DE3), purified (HisTrap, Resource Q, Superdex size exclusion)
